Measured values: publication PMC3699901 (Journal of molecular biology, 2013)
Ends that are not written are not given here. * marks the point of attachment. 5FAM = O=C1OC2(c3ccc(O)cc3Oc3cc(O)ccc32)c2ccc(C(=O)*)cc21

B1: fluorescein labeled SRC-1 peptide (5-FAM-[residues removed]), residues 676-700 (peptide)
peptide: 5FAM-CPSSHSSLTERHKILHRLLQEGSPS

What was measured:
[1] = target: T1, PXR LBD (residues 130-434), the LBD part of the crystallised fusion chain (human, UniProt O75469 130-434); assay: crystal structure
T1 sequence (looked up): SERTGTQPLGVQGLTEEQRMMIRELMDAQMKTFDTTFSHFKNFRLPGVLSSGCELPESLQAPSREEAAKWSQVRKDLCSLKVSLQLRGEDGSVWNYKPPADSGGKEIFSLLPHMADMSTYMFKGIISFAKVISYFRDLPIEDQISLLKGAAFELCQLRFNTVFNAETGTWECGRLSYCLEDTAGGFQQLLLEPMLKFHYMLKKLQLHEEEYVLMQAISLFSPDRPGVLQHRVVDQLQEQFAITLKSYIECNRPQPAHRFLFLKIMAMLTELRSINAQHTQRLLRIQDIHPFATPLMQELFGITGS

[2] = target: T2, RXRα LBD (residues 227-462), the LBD part of the crystallised fusion chain (human, UniProt P19793 227-462); assay: crystal structure
T2 sequence (looked up): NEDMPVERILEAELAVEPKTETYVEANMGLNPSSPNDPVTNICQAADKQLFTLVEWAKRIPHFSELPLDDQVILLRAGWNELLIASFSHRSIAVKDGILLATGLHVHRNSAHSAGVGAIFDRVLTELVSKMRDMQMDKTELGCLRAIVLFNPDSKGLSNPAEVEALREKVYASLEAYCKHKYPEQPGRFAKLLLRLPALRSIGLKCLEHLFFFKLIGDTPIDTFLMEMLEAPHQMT

[3] = target: T3, wild-type PXR LBD without the fused coactivator peptide (human, UniProt O75469 130-434); assay: fluorescence polarisation
T3 sequence (looked up): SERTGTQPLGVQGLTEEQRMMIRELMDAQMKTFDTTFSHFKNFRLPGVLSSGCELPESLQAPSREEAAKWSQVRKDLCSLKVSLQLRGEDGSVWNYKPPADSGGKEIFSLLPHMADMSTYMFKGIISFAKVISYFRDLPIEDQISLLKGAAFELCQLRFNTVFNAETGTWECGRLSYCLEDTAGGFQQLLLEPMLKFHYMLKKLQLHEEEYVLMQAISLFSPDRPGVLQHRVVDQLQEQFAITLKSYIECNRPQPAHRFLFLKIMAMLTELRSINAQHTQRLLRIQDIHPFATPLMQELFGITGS

[4] = target: T4, wild-type RXRα LBD without the fused coactivator peptide (human, UniProt P19793 227-462); assay: fluorescence polarisation
T4 sequence (looked up): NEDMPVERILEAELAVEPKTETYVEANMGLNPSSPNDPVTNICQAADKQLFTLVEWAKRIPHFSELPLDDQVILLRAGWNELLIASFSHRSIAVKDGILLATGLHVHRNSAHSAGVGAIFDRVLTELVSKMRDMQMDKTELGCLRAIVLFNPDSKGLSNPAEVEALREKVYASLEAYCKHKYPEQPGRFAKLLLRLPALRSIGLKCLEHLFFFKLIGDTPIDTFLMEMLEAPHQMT

[5] = target: B1; assay: fluorescence polarisation

SSHSSLTERHKILHRLLQEGSPS: binds [1]; binds [2].

Binder B1 has a Kd [3] of 1180 ± 92.2 nM and a Kd [4] of 1560 ± 198 nM.

B2: PXR/RXRα LBD heterotetramer complex of SRC-1 fused PXR LBD with unfused RXRα LBD (complex, human)
chain 1: NEDMPVERILEAELAVEPKTETYVEANMGLNPSSPNDPVTNICQAADKQLFTLVEWAKRIPHFSELPLDDQVILLRAGWNELLIASFSHRSIAVKDGILLATGLHVHRNSAHSAGVGAIFDRVLTELVSKMRDMQMDKTELGCLRAIVLFNPDSKGLSNPAEVEALREKVYASLEAYCKHKYPEQPGRFAKLLLRLPALRSIGLKCLEHLFFFKLIGDTPIDTFLMEMLEAPHQMT
chain 2: SERTGTQPLGVQGLTEEQRMMIRELMDAQMKTFDTTFSHFKNFRLPGVLSSGCELPESLQAPSREEAAKWSQVRKDLCSLKVSLQLRGEDGSVWNYKPPADSGGKEIFSLLPHMADMSTYMFKGIISFAKVISYFRDLPIEDQISLLKGAAFELCQLRFNTVFNAETGTWECGRLSYCLEDTAGGFQQLLLEPMLKFHYMLKKLQLHEEEYVLMQAISLFSPDRPGVLQHRVVDQLQEQFAITLKSYIECNRPQPAHRFLFLKIMAMLTELRSINAQHTQRLLRIQDIHPFATPLMQELFGITGSGGSGGSSHSSLTERHKILHRLLQEGSPS
Work on B2 yielded a Kd [5] of 778 ± 88.8 nM.

B3: PXR/RXRα LBD heterotetramer complex of unfused PXR LBD with SRC-1-fused RXRα LBD (complex, human)
chain 1: SERTGTQPLGVQGLTEEQRMMIRELMDAQMKTFDTTFSHFKNFRLPGVLSSGCELPESLQAPSREEAAKWSQVRKDLCSLKVSLQLRGEDGSVWNYKPPADSGGKEIFSLLPHMADMSTYMFKGIISFAKVISYFRDLPIEDQISLLKGAAFELCQLRFNTVFNAETGTWECGRLSYCLEDTAGGFQQLLLEPMLKFHYMLKKLQLHEEEYVLMQAISLFSPDRPGVLQHRVVDQLQEQFAITLKSYIECNRPQPAHRFLFLKIMAMLTELRSINAQHTQRLLRIQDIHPFATPLMQELFGITGS
chain 2: NEDMPVERILEAELAVEPKTETYVEANMGLNPSSPNDPVTNICQAADKQLFTLVEWAKRIPHFSELPLDDQVILLRAGWNELLIASFSHRSIAVKDGILLATGLHVHRNSAHSAGVGAIFDRVLTELVSKMRDMQMDKTELGCLRAIVLFNPDSKGLSNPAEVEALREKVYASLEAYCKHKYPEQPGRFAKLLLRLPALRSIGLKCLEHLFFFKLIGDTPIDTFLMEMLEAPHQMTGGSGGSSHSSLTERHKILHRLLQEGSPS
Binder B3 has a Kd [5] of 588 ± 29.7 nM.
